± gives the standard error. For part of these data: Fewer inactive variants are shown than the library holds.
B1: glmS ribozyme (parent)
chain: AUAAAAGCGCCAGAACUACAGAAAUGUAGUUGACGAGGAGGAGGUUUAUCGAAUUUUCGGCGGAUGCCUCCAAA

Legend:
Details in all cases: with glucosamine-6-phosphate
glucosamine-6-phosphate [1] = variants of: B1; test: kcat; higher = faster cleavage; RNA array
How it was run: (§1)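 E. coli RNA polymerase transcribed barcoded ribozyme variants in situ on sequenced MiSeq chips, which were tracked via a hybridised Cy3 probe at 37 °C. Tiles were imaged over ~14 h after glucosamine-6-phosphate (40 μM to 10 mM) in HEPES/KCl/Mg(OAc)2 buffer was flowed in. Normalised per-tile medians were fit to one- or two-exponential decays for kobs, and kcat and KM came from weighted Michaelis–Menten fits.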

glucosamine-6-phosphate [2] = variants of: B1; test: self-cleavage kobs at 640 uM GlcN6P; higher = faster cleavage; RNA array
How it was run: as §1

glucosamine-6-phosphate [3] = variants of: B1; test: self-cleavage kobs at 40 uM GlcN6P; higher = faster cleavage; RNA array
How it was run: as §1

glucosamine-6-phosphate [4] = variants of: B1; test: self-cleavage kobs at 160 uM GlcN6P; higher = faster cleavage; RNA array
How it was run: as §1

glucosamine-6-phosphate [5] = variants of: B1; test: self-cleavage kobs at 10000 uM GlcN6P; higher = faster cleavage; RNA array
How it was run: as §1

glucosamine-6-phosphate [6] = variants of: B1; test: KM; higher = weaker cofactor use; RNA array
How it was run: as §1

glucosamine-6-phosphate [7] = variants of: B1; test: self-cleavage kobs at 2500 uM GlcN6P; higher = faster cleavage; RNA array
How it was run: as §1

Variant	kcat (glucosamine-6-phosphate [1])	self-cleavage kobs at 640 uM GlcN6P (glucosamine-6-phosphate [2])	self-cleavage kobs at 40 uM GlcN6P (glucosamine-6-phosphate [3])	self-cleavage kobs at 160 uM GlcN6P (glucosamine-6-phosphate [4])	self-cleavage kobs at 10000 uM GlcN6P (glucosamine-6-phosphate [5])	KM (glucosamine-6-phosphate [6])	self-cleavage kobs at 2500 uM GlcN6P (glucosamine-6-phosphate [7])
AUAAAAGCGCCAGAACUACAGAAAUGUAGUUGACGAGGAGGAGGUUUAUCGAAUUUUGGGCUGAUGCCUUCAAA [C58G G62U C70U]	2.66e-05 ± 1.1e-05 s⁻¹	4.86e-05 ± 2.1e-05 s⁻¹	–	–	–	–	–
AUAAAAGCGCCAGAACUACAGAAAUGUAGUUGUCGAGGAUGAGGUUUAUCGAAUUUUCGGCGGAUGCCUCCAAA [A33U G40U]	5.28e-05 ± 4e-06 s⁻¹	–	< 1e-05 s⁻¹	< 1e-05 s⁻¹	1.68e-05 ± 7.9e-06 s⁻¹	–	–
AUAAAAGCGCCAGGACUACAGAAAUGUAGUUGACGAGGAGGAGGUUUAUCGAAUUUUCGGCGGAUGCCUCCAAA [A14G]	0.0996 ± 0.0091 s⁻¹	0.0249 ± 0.0012 s⁻¹	0.00231 ± 4.7e-05 s⁻¹	0.00764 ± 0.00054 s⁻¹	0.0902 ± 0.0048 s⁻¹	1720 ± 180 µM	0.0558 ± 0.0042 s⁻¹
AUAAAAGCGCCAGAACUACAGAAAUGUAGUUGACGAGGAGGAGGCUUAUCGAAUUAUCGGCGGAUGCCUCCAAA [U45C U56A]	0.000778 ± 0.00024 s⁻¹	0.000288 ± 3.9e-05 s⁻¹	–	7.1e-05 ± 1.5e-05 s⁻¹	0.000928 ± 0.00015 s⁻¹	–	0.000377 ± 6.1e-05 s⁻¹
AUAAAUGCGCCUGAACUACAGAAAUGUAGUUGACGAGGAGGAGGUUUAUCGAAUUUUCGGCGGAUGCCUCCAAA [A6U A12U]	0.000909 ± 9.6e-05 s⁻¹	0.000158 ± 2.3e-05 s⁻¹	–	6.32e-05 ± 1.6e-05 s⁻¹	0.000715 ± 9.1e-05 s⁻¹	2840 ± 510 µM	0.000426 ± 4.8e-05 s⁻¹
AUAAAGGCGCCAGAACUACAGAAAUGUAGUUGACGAGGAGGAGGUUUAUCGAAUAUUCGGCGGAUGCGUCCAAA [A6G U55A C68G]	2.16e-05 ± 2.8e-06 s⁻¹	–	–	–	–	–	–
AUAAAAGCGCCAGAACUACAGAAAUGUAGUUGACGAGGUGGAGGUUUAUCGAGUUUUCGGCGGAUGGCUCCAAA [A39U A53G C67G]	0.00494 ± 0.00087 s⁻¹	0.00186 ± 0.00023 s⁻¹	0.000219 ± 3.9e-05 s⁻¹	–	0.00612 ± 0.0016 s⁻¹	963 ± 280 µM	0.00346 ± 0.00056 s⁻¹
AUAAAAGCGCCAGAACUACAGAAAUGUAGUUGCCGAGGAGGAGGUUUAUCGAAUUUUCGGAGGAUGCCUCCAAA [A33C C61A]	< 1e-05 s⁻¹	–	–	–	< 1e-05 s⁻¹	–	–
AUAAAAGCGCCAGAUCUACAGAAAUGUAGUUGACGAGGAGGAGGUUCAUCGAAUUUUCGGCGGAUGCCUCCAAA [A15U U47C]	0.00038 ± 5e-05 s⁻¹	0.00024 ± 7.3e-05 s⁻¹	–	5.24e-05 ± 1.3e-05 s⁻¹	0.000325 ± 3.4e-05 s⁻¹	862 ± 310 µM	0.00036 ± 5e-05 s⁻¹
AUAAAAGCGCCAGAACUACAGAAAUGUAGUUUACGAGGAGGAGGUUUAUCGAAUUUUCGGCGGAUGCCUCAAAA [G32U C71A]	0.000322 ± 6.6e-05 s⁻¹	3.16e-05 ± 1.1e-05 s⁻¹	–	–	0.000222 ± 2.3e-05 s⁻¹	4080 ± 1900 µM	0.000161 ± 2.6e-05 s⁻¹
AUAAAAGCGCCAGAACUACAGAAAUGUAGUUGACGAGGAGGAGGUUUAUUGAAUUUUCGGCGGAUGCCGCCAAA [C50U U69G]	2.82e-05 ± 7.6e-06 s⁻¹	–	–	3.94e-05 ± 1.2e-05 s⁻¹	–	–	3.39e-05 ± 1.4e-05 s⁻¹
AUAAAAGCGACAGAACUACAGAAAUGUAGUUGACGAGGAGGAGGUUUUUCGAAUUUUCGGCGGAUGCCUCCAAA [C10A A48U]	< 1e-05 s⁻¹	< 1e-05 s⁻¹	–	–	< 1e-05 s⁻¹	–	–
AUAAAAGCGCCAGAGCUACAGAAAUGUAGAUGACGAGGAGGAGGUUUAUCGAAUUUUCGGCGGAUGCCUCCAAA [A15G U30A]	0.018 ± 0.005 s⁻¹	0.00983 ± 0.0012 s⁻¹	0.000649 ± 0.00011 s⁻¹	0.00255 ± 0.00036 s⁻¹	0.0115 ± 0.003 s⁻¹	923 ± 360 µM	0.0165 ± 0.0028 s⁻¹
AUAAAAGCGCCAGAACUACAGAAAUGUAGCGGACGAGGAGGAGGUUUAUCGAAUUUUCGGCGGAUGCCUCCAAA [U30C U31G]	0.00836 ± 0.0018 s⁻¹	0.00249 ± 0.00044 s⁻¹	0.000147 ± 1.9e-05 s⁻¹	0.000404 ± 0.0001 s⁻¹	0.00701 ± 0.00093 s⁻¹	2370 ± 690 µM	0.00353 ± 0.0008 s⁻¹
AUAAAAGCGCCAGAACUACAGAAAUGUAGUUGACGAGGCGGAGUUUUAUCGAAUUUUCGGCGGAUGCCUCCAAA [A39C G44U]	4.89e-05 ± 4.8e-06 s⁻¹	–	–	–	3.48e-05 ± 8.8e-06 s⁻¹	4080 ± 1200 µM	–
AUAAAAGCGCUAGAACUACAGAAAUGUAGUUGCCGAGGAGGAGGUUUAUCGAAUUUUCGGCGGAUGCCUCCAAA [C11U A33C]	1.8e-05 ± 2.7e-06 s⁻¹	–	–	–	–	8710 ± 2600 µM	–
AUAAAAGCGUCAGAACUACAGAAAUGUAGUUGACGAGGAGGAGGUUUAUCGAAUUUUCGGCGGAUGCCUCGAAA [C10U C71G]	1.65e-05 ± 5.1e-06 s⁻¹	–	< 1e-05 s⁻¹	–	–	–	–
AUAAAAGCGCCAGAACUACAGAAAUGUAGUUGUCGAGGAGGAGGUGUAUCGAAUUUUCGGCGGAUGCCUCCAAA [A33U U46G]	1.23e-05 ± 2.7e-06 s⁻¹	–	< 1e-05 s⁻¹	< 1e-05 s⁻¹	–	–	–
AUAAAAGCGCCAGAACUACAGAAAUGUAGUUGACGACGAGGAGGUUUAGCGAAUUUUCGGCGGAUGCCUCCAAA [G37C U49G]	< 1e-05 s⁻¹	–	–	–	–	–	–

— the supplement of paper PMC7125110
